Changes are numbered by the printed parent chain.
T1: S15-extra cellular domain (ECD) monomer (human, UniProt Q6ZMC9 20-263)
T1 construct: also called S15 monomer protein
T1 sequence: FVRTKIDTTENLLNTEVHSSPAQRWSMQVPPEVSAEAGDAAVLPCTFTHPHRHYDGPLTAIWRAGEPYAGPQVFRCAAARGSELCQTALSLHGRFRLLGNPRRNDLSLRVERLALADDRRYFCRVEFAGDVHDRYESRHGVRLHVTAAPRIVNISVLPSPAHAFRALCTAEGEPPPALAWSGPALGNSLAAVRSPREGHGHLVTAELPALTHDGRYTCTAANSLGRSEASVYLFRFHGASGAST

T2: hS15 (Homo sapiens, UniProt Q6ZMC9)
T2 construct: full length, cell surface; also called human Siglec-15; huS15
T2 sequence (membrane protein on cells, looked up): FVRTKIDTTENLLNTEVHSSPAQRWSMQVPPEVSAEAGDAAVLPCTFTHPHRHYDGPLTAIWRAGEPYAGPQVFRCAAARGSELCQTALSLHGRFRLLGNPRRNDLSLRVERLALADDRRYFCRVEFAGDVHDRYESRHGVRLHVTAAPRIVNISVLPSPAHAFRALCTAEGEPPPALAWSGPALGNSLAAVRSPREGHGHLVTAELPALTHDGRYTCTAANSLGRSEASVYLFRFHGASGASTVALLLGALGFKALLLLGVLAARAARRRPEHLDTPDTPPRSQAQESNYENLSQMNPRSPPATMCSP

B1: 80A (antibody, V domains shown)
VH: QVQLKQSGAELVRPGASVKLSCRASGYTFTDFYINWVKQRPGQGLEWIARIYPGSDETYYNEKFKDKVTLTAEKSSSTAYMQLSSLTSEDSAVYFCALWFFDVWGTGTTVTVSS
VL: DIVMTQSPSSLTVTAGEKVTMSCKSNQSLLNSGDQKNYLTWYQQKPGQPPKLLIYWASTRESGVPDRFTGSGSGTDFTLTISSVQAEDLAIYYCQNDYSYPLTFGAGTKLELK
notes: Mouse anti-human Siglec-15 mAb; also called NC80
B2: 10G9 (antibody, V domains shown)
VH: EVQLLETGGGLVQPGGSRGLSCEGSGFTFSDFWMSWVRQTPGKTLEWIGDINSDGSAVNYAPSIKDQFTIFRDNDKRTLHLQMINVRSEDTATYFCVRYDDYGYFDVWGTGTTVTVSS
VL: QAVVTQESALTTSPGETVTLTCRSSTGAVTTSNYANWVQEKPDHLFTGLIGGTNNRAPGVPARFSGSLIGDKAALTITGAQTEDEAIYFCALWYSNHWVFGGGTKLTVL
notes: Mouse anti-human Siglec-15 mAb
B3: 8H8 (antibody, V domains shown)
VH: B2 VH with D31G, V58I, Q67R, R77N, H80Y, I84N
VL: B2 VL with T26S, S32G, Y34F
notes: as for B2
B4: 1C3 (antibody, V domains shown)
VH: QVQLKQSGAELVKPGASVKISCKASGYIFTDYYVNWVKQRPGQGLEWIGKIGPGSVSIYYNEKFKGKATLTADKSSSTAYMQLSSLTSEDSAVYFCASYYYGFAYWGQGTLVTVSA
VL: DIVMTQAAPSVPVTPGESVSISCRSSKSLLHSNGNTYLYWFLQRPGQSPQLLIYRMSNLASGVPDRFGGSGSGTAFTLRISRVEAEDVGFYYCMQHLEYPYTFGGGTRLEIK
notes: as for B2
B5: 8C8 (antibody, V domains shown)
VH: B4 VH with I28T, G54E, N61S, G66A
VL: B4 VL with F90V, R108K
notes: as for B2
B6: 3H10 (antibody, V domains shown)
VH: EVQLQQSGAELVRPGASVKLSCTASGFNIKDYYMHWVKERPEQGLEWIGRIDPEDGDIEYDPKFQGKATMTADTSSNTAYLQFSSLTSEDTAVYYCVTDYDYDGGWFAYWGQGTLVTVSA
VL: QIILTQSPAIMSASPGEKVTMTCSASSSTSFMHWYQQKPGTSPKRWIFDTSKLASGVPGRFIGSGSGTSYSLTISTMEAEDAATYYCHQRSAYPWTFGGGTKLEIK
notes: as for B2
B7: 93B (antibody, V domains shown)
VH: QVQLKQSGAELVRPGASVKLSCKASGYTFTDYYINWVKQRPGQGLEWIARIYPGNGNTDYNEKFKDKATLTAEKSSTTAYIQLSSLTSEDSAVYFCCLWYFDVWGTGTTVTVSS
VL: B1 VL with N26S, D34N, S83N, A86P, I91V, Y100F, L102F, A106S, K109E, L112M
notes: Mouse anti-human Siglec-15 mAb; also called NC93
B8: 83B (antibody, V domains shown)
VH: EVQLQQSGPELVKPGASVKMSCKASGYTFTDYNMHWVKQSHGKSLEWIGYINPNNGGTSYNQKFKDKATLTVNKSSSTAFMELRSLASEDSAVYYCARSDWEDCWGQGTTLTVSS
VL: EIQMTQSPSSMSASLGDRITITCQATQDIVKNLNWYQQKPGKPPSFLIYYATELAEGVPSRFSGSGSGSDYSLTISNLESEDFADYYCLQFYEFPYTFGGGTKLEIK
notes: Mouse anti-human Siglec-15 mAb; also called NC83
B9: 105A (antibody, V domains shown)
VH: EVQLQQSGAELVRPGASVKLSCTASGFNIKDDYMHWVKQRPEQGLEWIGCIDPENGDIEYASRFQGKATMTADTSSNTAYLQLTSLTSADTAVYYCTTYVGFGYWGQGTLVTVSA
VL: DVLMTQTPLSLPVSLGDQASISCRSSQSIVHSNGNTYLEWYLQKPGQSPKLLIYKVSNRFSGVPDRFSGSGSGTDFTLKISRVEAEDLGVYYCFQGSHVPLTFGAGTKLELK
notes: Mouse anti-human Siglec-15 mAb; also called NC105
B10: 6A (antibody, V domains shown)
VH: B9 VH with I58T, R63K, G66D, M70I, A72T, T84S, A89E, G103A, A115T
VL: B9 VL with K79R
notes: Mouse anti-human Siglec-15 mAb; also called NC6
B11: 77A (antibody, V domains shown)
VH: B9 VH with I58T, R63K, M70I, A79V, T84S, A89E
VL: B9 VL with T7S, S28N, Q43K, V90M
notes: Mouse anti-human Siglec-15 mAb; also called NC77
B12: 92A (antibody, V domains shown)
VH: DVQLQESGPGLVKFSQSLSLTCSVTGYSITSGYYWNWIRQFPGNKLEWMGYIRHDGSNNYNPSLKNRISITRDTSKNQFFLKLNSVITEDTATYYCVREIYDGSSGYFDVWGTGTTVTVSS
VL: QIVLTQSPAIMSASLGEEITLICSASSSVSYMHWYQQKSGTSPKLLIYRTSNLASGVPSRFSGSGSGTFYSLTISSVEAEDAADYYCHQWSSWTFGGGTQLEIK
notes: Mouse anti-human Siglec-15 mAb; also called NC92
B13: 104B (antibody, V domains shown)
VH: QVQLQQSGPELARPGASVKLSCKASGYTFTSYGISWVKQRTGQGLEWIGQIHPRSGNTYYNENFKGKATLTAAKSSSTAYLELRSLTSEDSAVYFCAREGGPDYWGQGTTLTVSS
VL: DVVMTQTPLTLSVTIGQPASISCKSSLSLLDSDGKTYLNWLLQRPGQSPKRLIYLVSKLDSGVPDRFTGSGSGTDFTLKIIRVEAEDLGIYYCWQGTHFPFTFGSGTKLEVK
notes: Mouse anti-human Siglec-15 mAb; also called NC104
B14: 99B (antibody, V domains shown)
VH: QVQLQQSGAELARPGASVKLSCKASGYTFTSDGITWLKQRTGQGLEWIGQIHPRSGNTYYNEKFKGKATLTADKSSSTAYMELRSLTSEDSAVYFCAKTGTGDYWGQGTTLTVSS
VL: not shown
notes: Mouse anti-human Siglec-15 mAb; also called NC99
B15: 82B (antibody, V domains shown)
VH: B14 VH with L37V, E62G, K74R, A79T
VL: not shown
notes: Mouse anti-human Siglec-15 mAb; also called NC82
B16: 1C12 (antibody, V domains shown)
VH: EVQLVESGGGLVKPGGSLKLSCAASGFSFSDYGMHWVRQAPEKGLEWVAYISSGSSILYYADIVKGRFTISRDNAKNTLFLQMTSLRSEDTAMYYCARDHYHGNGSDYWGQGTTLTVSS
VL: B9 VL with L101W, A105G, L111I
notes: as for B2
B17: 1B2 (antibody, V domains shown)
VH: B16 VH with L11F, S28T, L58I, I63T
VL: B9 VL with L101W, A105G, L111I
notes: as for B2
B18: 6F8 (antibody, V domains shown)
VH: B4 VH with A9P, K13R, K23E, I28T, Q43R, G66D, S85G
VL: DIVMTQAAPSVPVTPGESVSISCRSSKSLLHSNGNTYLYWFLQRPGQSPQLLIYRMSNLASGVPDRFGGSGSGTAFTLRISRVEAEDVGVYYCMQHLEYPYTFGGGTKLEIKR
notes: as for B2
B19: 9A5 (antibody, V domains shown)
VH: HVQLQQSGAELARPGASVKLSCKASGYTFTSYGLIWVKQRTGQGLEWIGEIYPRSGNTYYNEKFKGKATLTADISSSTAYMELRSLTSEDSAVYFCASSSPHGDYWGQGTTLTVSS
VL: not shown
B20: NC28 (antibody, V domains shown)
VH: QVQLQQSGAELARPGASVKLSCKASGYTFISYGITWVKQRTGQGLEWIGEIHPRSGNTYYNENFKDRASLTADKSSSTAYMEVRSLTSEDSAVYFCARGGPGDYWGQGTTLTVSS
VL: not shown
notes: mouse anti-human Siglec-15 mAb; also called 28A
B21: NC63 (antibody, V domains shown)
VH: B13 VH with P9A, H52Y, G56D, N63R, A73D, L81M, E82A
VL: not shown
notes: mouse anti-human Siglec-15 mAb; also called 63A

What follows are binders tested against T1, S15-extra cellular domain (ECD) monomer (assay: BLI (Octet RED96), mAb on anti-human Fc sensors, S15-ECD monomer in solution, global fit).
Procedure: Optimized KD experiments were performed on a ForteBio Octet RED96 instrument using anti-human Fc capture (AHC, 18-5060; ForteBio) sensors. Assay buffer was PBS containing 0.05% Tween-20 and regeneration buffer was 10 mM glycine (pH 1.5). First the antibodies were loaded at 1 μg/mL for 600 seconds. This was followed by a 60 second baseline step, a 300 second association step in S15-extra cellular domain (ECD) monomer, and finally a 1200 second dissociation step. The monomer concentrations ranged from 100 nM to 1.56 nM in a two-fold dilution series and a blank well was included. Data was processed using ForteBio's Data Analysis Software 7.0; a global fit was used, along with reference well subtraction. Reported values are the average of at least three independent octet runs.
B1 showed a Kd of 0.5 nM, a koff of 0.000175 s⁻¹ and a kon of 348000 M⁻¹ s⁻¹.
For B2, the Kd was 0.55 nM, the koff was 0.000152 s⁻¹ and the kon was 277000 M⁻¹ s⁻¹.
B3 showed a Kd of 1.3 nM, a koff of 0.00027 s⁻¹ and a kon of 209000 M⁻¹ s⁻¹.
B4 showed a Kd of 0.58 nM, a koff of 0.000174 s⁻¹ and a kon of 317000 M⁻¹ s⁻¹.
Work on B5 yielded a Kd of 0.89 nM, a koff of 0.00023 s⁻¹ and a kon of 292000 M⁻¹ s⁻¹.
B6 showed a Kd of 0.6 nM, a koff of 0.000178 s⁻¹ and a kon of 306000 M⁻¹ s⁻¹.
B7 gave a Kd of 0.88 nM, a koff of 0.000162 s⁻¹ and a kon of 185000 M⁻¹ s⁻¹.
With B8 the Kd was 1.19 nM, the koff was 0.000415 s⁻¹ and the kon was 353000 M⁻¹ s⁻¹.
Binder B9 has a Kd of 1.39 nM, a koff of 0.000102 s⁻¹ and a kon of 72000 M⁻¹ s⁻¹.
B10 showed a Kd of 2.94 nM, a koff of 0.000211 s⁻¹ and a kon of 73000 M⁻¹ s⁻¹.
Binder B11 has a Kd of 1.93 nM, a koff of 0.000143 s⁻¹ and a kon of 72000 M⁻¹ s⁻¹.
Work on B12 yielded a Kd of 1.42 nM, a koff of 0.00014 s⁻¹ and a kon of 99000 M⁻¹ s⁻¹.
B13 showed a Kd of 3.08 nM, a koff of 5.9e-05 s⁻¹ and a kon of 23000 M⁻¹ s⁻¹.
With B14 the Kd was 3.86 nM, the koff was 0.000102 s⁻¹ and the kon was 32000 M⁻¹ s⁻¹.
Binder B15 has a Kd of 4.84 nM, a koff of 0.0001 s⁻¹ and a kon of 23000 M⁻¹ s⁻¹.
B16 gave a Kd of 4.01 nM, a koff of 0.000423 s⁻¹ and a kon of 105000 M⁻¹ s⁻¹.
Binder B17 has a Kd of 4.33 nM, a koff of 0.000609 s⁻¹ and a kon of 143000 M⁻¹ s⁻¹.
B18 showed a Kd of 0.44 nM, a koff of 0.000134 s⁻¹ and a kon of 304000 M⁻¹ s⁻¹.

What follows are binders tested against T2, hS15 (assay: flow cytometry, live 293T.hS15 cells, 1 µg mAb/1E05 cells/100 µL, PE secondary).
Procedure: Cells were sorted to establish human S15 and mouse S15 stable cell lines. […] 1E05 cells in 100 μL FACS buffer were aliquoted to separate tubes and 1 μg of purified mAb was added. Cells were incubated at 4 degrees C. for 30 minutes, then washed twice with excess FACS buffer. Cells were resuspended in 100 μL FACS buffer and 0.005 μg of anti-mouse IgG-PE secondary antibody was added to samples, incubated for 30 minutes and washed twice with excess FACS buffer. Cells were fixed in fixation buffer and subsequently analyzed by flow cytometry.
B19: binds.
B20: binds.
B21: binds.

— US20190202912A1 (NEXTCURE, published 2019)
